The text below walks through data of paper PMC9738581, “Dissection of Functional Domains of Orc1-2, the Archaeal Global DNA Damage-Responsive Regulator”.

Holding throughout (conditions): protein: recombinant; tags: His; label: 5'-32P; blunt
Data set [1] has as its target T1, Orc1-2 WT (Saccharolobus islandicus REY15A, UniProt F0NF18 1-413).
T1 sequence: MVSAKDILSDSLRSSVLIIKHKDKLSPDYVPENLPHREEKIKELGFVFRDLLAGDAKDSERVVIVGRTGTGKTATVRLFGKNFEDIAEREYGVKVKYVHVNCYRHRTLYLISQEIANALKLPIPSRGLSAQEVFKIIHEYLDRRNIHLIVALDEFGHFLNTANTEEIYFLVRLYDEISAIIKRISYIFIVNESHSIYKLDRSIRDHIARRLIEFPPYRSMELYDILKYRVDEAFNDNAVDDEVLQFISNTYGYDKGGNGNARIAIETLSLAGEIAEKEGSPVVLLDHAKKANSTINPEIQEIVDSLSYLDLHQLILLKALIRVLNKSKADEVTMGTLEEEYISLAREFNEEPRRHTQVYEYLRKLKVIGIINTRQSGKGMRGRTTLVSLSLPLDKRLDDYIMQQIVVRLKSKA
In words: EMSA; 25 nM protein, unlabeled specific competitor; affinity very similar to PupsE; EMSA: 20 mM HEPES pH 7.6, 10 mM (NH4)2SO4, 1 mM DTT, 0.2% Tween-20, 30 mM KCl, 40 °C 20 min, 2 nM probe; 8% native PAGE in 40 mM Tris, 20 mM boric acid.

A further data set addresses T2, Orc1-2 ΔC (Saccharolobus islandicus REY15A, UniProt F0NF18 1-298).
T2 sequence: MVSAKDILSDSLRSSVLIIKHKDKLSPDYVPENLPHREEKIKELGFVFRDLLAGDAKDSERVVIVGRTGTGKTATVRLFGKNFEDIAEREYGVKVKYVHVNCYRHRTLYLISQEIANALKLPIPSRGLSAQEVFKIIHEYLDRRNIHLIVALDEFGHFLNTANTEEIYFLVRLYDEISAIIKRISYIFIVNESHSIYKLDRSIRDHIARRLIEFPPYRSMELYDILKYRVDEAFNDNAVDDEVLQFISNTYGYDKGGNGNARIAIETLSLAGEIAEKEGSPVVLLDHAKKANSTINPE
The data set is described as follows: EMSA; EMSA: 20 mM HEPES pH 7.6, 10 mM (NH4)2SO4, 1 mM DTT, 0.2% Tween-20, 30 mM KCl, 40 °C 20 min, 2 nM probe; 8% native PAGE in 40 mM Tris, 20 mM boric acid.

Data set [2] addresses T1, Orc1-2 WT. Described as above.
The target of another data set is T3, Orc1-2 wH (Saccharolobus islandicus REY15A, UniProt F0NF18 1-413, R353A;R354A;R381A;R383A).
T3 sequence: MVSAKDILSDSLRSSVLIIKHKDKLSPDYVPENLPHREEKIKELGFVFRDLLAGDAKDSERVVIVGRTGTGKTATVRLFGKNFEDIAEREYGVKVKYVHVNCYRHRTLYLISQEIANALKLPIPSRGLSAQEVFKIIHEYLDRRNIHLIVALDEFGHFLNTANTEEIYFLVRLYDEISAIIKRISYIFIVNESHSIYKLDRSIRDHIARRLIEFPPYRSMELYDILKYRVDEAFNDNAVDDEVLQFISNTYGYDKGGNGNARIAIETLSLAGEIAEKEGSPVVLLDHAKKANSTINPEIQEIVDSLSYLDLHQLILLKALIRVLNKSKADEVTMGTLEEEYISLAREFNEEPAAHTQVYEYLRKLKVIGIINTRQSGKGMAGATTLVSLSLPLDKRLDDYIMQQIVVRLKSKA
The data set is described as above.

The target of a further data set is T4, Orc1-2 WB (Saccharolobus islandicus REY15A, UniProt F0NF18 1-413, E154A).
T4 sequence: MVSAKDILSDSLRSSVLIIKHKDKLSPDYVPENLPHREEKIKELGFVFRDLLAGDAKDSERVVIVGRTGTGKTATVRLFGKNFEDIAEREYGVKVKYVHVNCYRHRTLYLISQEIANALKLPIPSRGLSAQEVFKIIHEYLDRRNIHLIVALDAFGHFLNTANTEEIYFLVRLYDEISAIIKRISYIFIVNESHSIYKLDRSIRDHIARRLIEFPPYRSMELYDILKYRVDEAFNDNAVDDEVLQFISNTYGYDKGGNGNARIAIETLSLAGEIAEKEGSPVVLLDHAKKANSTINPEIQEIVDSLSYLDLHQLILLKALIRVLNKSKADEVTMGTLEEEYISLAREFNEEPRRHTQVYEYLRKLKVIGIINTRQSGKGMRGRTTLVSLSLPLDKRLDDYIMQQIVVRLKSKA
In words: EMSA; similar or stronger than WT; EMSA: 20 mM HEPES pH 7.6, 10 mM (NH4)2SO4, 1 mM DTT, 0.2% Tween-20, 30 mM KCl, 40 °C 20 min, 2 nM probe; 8% native PAGE in 40 mM Tris, 20 mM boric acid.

The next data set addresses T5, Orc1-2 ΔN (Saccharolobus islandicus REY15A, UniProt F0NF18 299-413).
T5 sequence: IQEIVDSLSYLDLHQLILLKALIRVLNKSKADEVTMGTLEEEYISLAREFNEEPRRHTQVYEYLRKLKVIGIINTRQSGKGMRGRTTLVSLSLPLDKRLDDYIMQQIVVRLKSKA
In words: EMSA; large complexes, distributive; two distinct complexes at lowest protein concentration; EMSA: 20 mM HEPES pH 7.6, 10 mM (NH4)2SO4, 1 mM DTT, 0.2% Tween-20, 30 mM KCl, 40 °C 20 min, 2 nM probe; 8% native PAGE in 40 mM Tris, 20 mM boric acid.

B1: Porc1-2 (dsDNA)
DNA 1: TTTGAGAAAGAATCAAGAAAAGTTTCGGACTACTCTCTTAGATAAA
DNA 2: TTTATCTAAGAGAGTAGTCCGAAACTTTTCTTGATTCTTTCTCAAA
As to B1, the binding result with Orc1-2 WT [1] is “binds”.

B2: PupsE (dsDNA)
DNA 1: CTATAAAGGAAGTTTTAAGTAATTTCGGTATTGTGTGAGTATATTT
DNA 2: AAATATACTCACACAATACCGAAATTACTTAAAACTTCCTTTATAG
For the molecule B2, the binding result in the data set with Orc1-2 ΔC is “no binding”; in the data set with Orc1-2 WT [2], “binds”; with Orc1-2 wH, “no binding”; with Orc1-2 WB, “binds”; with Orc1-2 ΔN, “binds”.
